In patent US20200277373A1, “ANTI-TREM2 ANTIBODIES AND METHODS OF USE THEREOF” (Denali Therapeutics Inc., priority 2017, published 2020):

T1: hTREM2 (Homo sapiens, UniProt Q9NZC2)
T1 construct: The ecto domain (residues 19-172) of TREM2 (UniProtKB—Q9NZC2); secretion signal of mouse Ig kappa chain V-III (P01661 aa 1-20) (N); made in house; host or cells: Expi293F
T1 sequence (Q9NZC2 19-172): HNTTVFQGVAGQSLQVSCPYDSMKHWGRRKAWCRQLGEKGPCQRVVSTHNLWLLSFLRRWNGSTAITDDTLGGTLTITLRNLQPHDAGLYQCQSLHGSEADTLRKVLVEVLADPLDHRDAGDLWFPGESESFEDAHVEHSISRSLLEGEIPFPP

T2: TREM2 (Homo sapiens, UniProt Q9NZC2)
T2 construct: macrophage cells that endogenously express TREM2; endogenous in cells; host or cells: primary human monocyte-derived macrophages from donor blood
T2 sequence (Q9NZC2 19-230): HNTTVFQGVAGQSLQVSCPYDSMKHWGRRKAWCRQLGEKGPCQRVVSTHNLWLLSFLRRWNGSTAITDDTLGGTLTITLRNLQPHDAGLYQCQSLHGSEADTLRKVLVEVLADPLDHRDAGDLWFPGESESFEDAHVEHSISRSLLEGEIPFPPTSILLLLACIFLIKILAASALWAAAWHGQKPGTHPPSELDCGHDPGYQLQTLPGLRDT

B1: 54C2.A1: anti-TREM2 antibody clone; VH SEQ ID NO:22, VL SEQ ID NO:33 (antibody, V domains shown)
VH: QVHLQQSGSELRSPGSSVKLSCKDFDSEVFPIAYMSWVRQKPGHGFEWIGDILPSIGRRIYGVKFEDKATLDADTVSNTAYLELNSLTSEDSAIYYCTRKDYGSLAYWGQGTLVTVSA
VL: DVVMTQTPLSLPVSLGDQASISCRSSQSLVHINGNTYLQWYLQKPGQSPKLLIYKVSNRFSGVPDRFSGSGSGTDFTLRISRVEAEDLGVYFCSQSTHLPYTFGGGTKLEIK
B2: 24B4.A1: anti-TREM2 antibody clone; VH SEQ ID NO:17, VL SEQ ID NO:28 (antibody, V domains shown)
VH: QVHLQQSGSELRSPGSSVKLSCKDFDSEVFPISYMSWIRQKPGHGFEWIGDILPSIGGRIYGVKFEDRATLDADTVSNTAYLELNSLTSEDSAIYYCARKDYGSLAYWGQGTLVTVSA
VL: DVVMTQTPLSLPVSLGDQASISCRSSQSLVHINGNTYLQWFLQKPGQSPKLLIYKVSNRFSGVPDRFSGSGSGTAFTLKISRVEAEDLGVYFCSQSTHVPYTFGGGTKLEIK
B3: RS9.F6/3C35.21.17_LALAPG: TREM2/TfR-binding protein: RS9.F6 Fabs on TfR-binding knob Fc and hole Fc; SEQ ID NOs:35, 91, 92 (protein)
light: DVVMTQTPLSLPVSLGDQASISCRSSQSLVHNNGNTFLHWYLQKPGQSPKLLIYKVSNRFSGVPDRFSGSGSGTDFTLKISRVEAEDLGVYFCSQTTHVPPTFGGGTKLEIK
heavy 1: QVQLQQPGAELVKPGASVKLSCKASGYTFTSYWMHWVKQSPGRGLEWIGRSDPTTGGTNYNEKFKTKATLTVDKPSSTAYMQLSSLTSDDSAVYYCVRTSGTGDYWGQGTSLTVSSASTKGPSVFPLAPSSKSTSGGTAALGCLVKDYFPEPVTVSWNSGALTSGVHTFPAVLQSSGLYSLSSVVTVPSSSLGTQTYICNVNHKPSNTKVDKKVEPKSCDKTHTCPPCPAPEAAGGPSVFLFPPKPKDTLMISRTPEVTCVVVDVSHEDPEVKFNWYVDGVEVHNAKTKPREEQYNSTYRVVSVLTVLHQDWLNGKEYKCKVSNKALGAPIEKTISKAKGQPREPQVYTLPPSRDELTKNQVSLWCLVKGFYPSDIAVLWESYGTEWASYKTTPPVLDSDGSFFLYSKLTVTKEEWQQGFVFSCSVMHEALHNHYTQKSLSLSPGK
heavy 2: QVQLQQPGAELVKPGASVKLSCKASGYTFTSYWMHWVKQSPGRGLEWIGRSDPTTGGTNYNEKFKTKATLTVDKPSSTAYMQLSSLTSDDSAVYYCVRTSGTGDYWGQGTSLTVSSASTKGPSVFPLAPSSKSTSGGTAALGCLVKDYFPEPVTVSWNSGALTSGVHTFPAVLQSSGLYSLSSVVTVPSSSLGTQTYICNVNHKPSNTKVDKKVEPKSCDKTHTCPPCPAPEAAGGPSVFLFPPKPKDTLMISRTPEVTCVVVDVSHEDPEVKFNWYVDGVEVHNAKTKPREEQYNSTYRVVSVLTVLHQDWLNGKEYKCKVSNKALGAPIEKTISKAKGQPREPQVYTLPPSRDELTKNQVSLSCAVKGFYPSDIAVEWESNGQPENNYKTTPPVLDSDGSFFLVSKLTVDKSRWQQGNVFSCSVMHEALHNHYTQKSLSLSPGK

Experiments:
human macrophages [1] = experiment: Signaling pathway Alpha-LISA (pSYK, pERK1/2, pGSK3-beta, pAKT) in human macrophages; assay type: cell-based; conditions: 15 minutes
Procedure: Anti-TREM2 antibodies were characterized for activation of several signaling pathways, SYK, ERK1/2, AKT and GSK3-beta. Human macrophages differentiated from peripheral monocytes were plated in 96-well plates at a density of 100,000 cell/well. The assay was tested in three conditions (0%, 0.5%, and 10% FBS in the media) for 3 hours. Cells were stimulated with the antibody RS9.F6, 24B4.A1, 8A11.B1, 3D3.A1, 54C2.A1, isotype control IgG2ak, rat anti-TREM2 from R&D, isotype control rat IgG2b, or no treatment (NT) for 15 minutes. The cell lysates were measured for p-Y525/526-SYK, p-T202/Y204-ERK1/2, p-S9-GSK3-beta, and p-S473-AKT using Alpha-LISA kits (Perkin Elmer). […] The antibodies stimulated p-GSK signal moderately (FIG. 6C).

hTREM2 [2] = target: T1, hTREM2; experiment: Octet binning (competition with R&D antibody on biotinylated TREM2-His); assay type: binding; conditions: epitope bin, 100 nM
Procedure: Competition with R&D antibody was done by Octet Red using biotinylated human Trem2-His protein generated in house. Biotinylated human TREM2-His protein was captured on a streptavidin tip, and the tip was then incubated in either 100 nM of R&D Ab or buffer for 3 minutes, followed by incubation for 3 minutes in 100 nM of testing hybridoma. The difference of hybridoma binding curve with or without pre-binding to R&D antibody was analyzed to determine the epitope.

soluble TREM2 (sTREM2) = target: T3, soluble TREM2 (sTREM2) (Homo sapiens, UniProt Q9NZC2); experiment: Soluble TREM2 (TREM2 shedding) assay in HEK293 TREM2/DAP12 cells; assay type: cell-based; design: key to STREM2: NC = no change; −− = reduced sTREM2; ++ = increased sTREM2; conditions: change in sTREM2 levels
T3 construct: expressed in transfected cells
Procedure: HEK293 cells stably expressing human TREM2 and DAP12 were plated onto 96-well plates pre-coated with poly-D-lysine 4-16 hours prior to antibody treatment. Antibody supernatants or control antibodies were diluted into fresh complete media and added onto cells in triplicate. Cells were incubated with antibody containing media for 18 hours prior to removal of the cell supernatant for assay by TREM2 ELISA. Samples and standards were diluted 1:10 into blocking buffer (3% BSA/TBST) in the assay plate. Briefly, MSD small spot streptavidin plates were coated with biotinylated anti-hTREM2 polyclonal antibody (R&D Systems) overnight at 4° C. or 1 hour at room temperature. Plates were then blocked overnight at 4° C., or 1 hour at room temperature, with blocking buffer, 3% BSA/TBST. Plates were washed three times with TBST in a Biotek plate washer (used for all washes) prior to addition of diluent (blocking buffer) and denatured supernatants from cell culture. A TREM2-His protein diluted in 3% BSA/TBST was used as a standard for absolute quantification. Following 1 hour incubation at room temperature, plates were washed with TBST. The primary detection antibody, sulfo-tagged goat anti-human TREM2 (R&D Systems), diluted in 3% BSA/TBST was added and incubated for 1 hour at room temperature. After washing with TBST, MSD plates were developed using 2×MSD read buffer T, followed by detection using an MSD Sector plate reader. MSD values were converted to absolute quantities of sTREM2 by fitting a standard curve using Prism 7.0 software (Graphpad). Modulation of TREM2 shedding was represented as a ratio to cells cultured with no specific TREM2 antibody in the media.

TREM2 [3] = target: T4, TREM2 (Homo sapiens, UniProt Q9NZC2); experiment: FACS binning on human TREM2-HEK cells (competition with R&D antibody); assay type: binding; conditions: epitope bin, 100 nM antibody
T4 construct: expressed in transfected cells
Procedure: HEK293 overexpressing human TREM2 (H6) were harvested by 0.05% trypsin and incubated at 37° C. incubator for 2 hours for surface TREM2 recovery. After incubation, cells were washed with 1×PBS and FACS buffer (PBS+0.5% BSA) with human Trustain FcX solution (Biolegend, Cat #422302) was added at a density of 10^6/mL. Cells were seeded at 100,000 cells per well in a 96-well round-bottom and incubated 20 minutes at room temperature. After incubation, anti-TREM2 antibodies (100 nM) were added to the cells and the cells were incubated for 45 minutes on ice. After incubation, rat anti-h/mTREM2-APC antibody (1:100, R&D, Cat # FAB17291A) was added to the cells, and the cells were incubated for 30 minutes on ice. After incubation, cells were washed with FACS buffer three times and resuspended in 10 μL FACS buffer, then analyzed by flow cytometry (BD FACSCanto II, San Jose, Calif.). 20,000 events were obtained for each sample. The ability to compete with R&D antibody was determined by MFI analysis compared to isotype or buffer control wells.
T4 sequence (O43914 22-113 partner, one chain of several): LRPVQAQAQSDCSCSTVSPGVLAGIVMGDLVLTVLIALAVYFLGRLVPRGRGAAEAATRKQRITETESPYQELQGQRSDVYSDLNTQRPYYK

human macrophages [4] = experiment: Cell survival assay, human monocyte-derived macrophages, restricted or no M-CSF, CellTiter Glo; assay type: cell-based; conditions: plate coated antibody, 5 ng/mL or no M-CSF, day 6
Procedure: TREM2 can support microglia energy homeostasis (Ulland et al., Cell, 2017, 170:649-663). […] To understand if enhancing TREM2 activity with TREM2 agonistic antibodies is sufficient for macrophage/microglia survival under limited M-CSF conditions, human macrophage differentiation and survival studies were performed using antibodies as described herein. Human monocytes isolated from peripheral blood were incubated with 5 ng/mL M-CSF in the presence of titrated concentrations of plate coated TREM2 antibodies or isotype controls. On day 6 cell viability was determined by CellTiter Glo viability assay.

TREM2 [5] = target: T2, TREM2; experiment: TREM2 pSyk antagonist assay on human macrophages (antibody pre-incubation, then liposomes); assay type: cell-based; conditions: FIGS. 9C-9D, 30 nM antibody
Procedure: Human macrophages were differentiated from donor blood using a human monocyte enrichment cocktail (Stem Cell Technologies) and culturing monocytes with human mCSF for five days in macrophage media (RPMI+10% Hyclone FBS+Glutamax+Pen/Strep+non-essential amino acids+sodium pyruvate). On the fifth day, the human macrophages were scraped from the flasks and were re-plated at 100,000 cells/well on a 96-well poly-D-lysine-coated plate in the macrophage media (without mCSF). The cells were incubated for 24 hours to adhere, then the media was removed.
Antibodies diluted in RPMI alone were immediately added to the cells, and allowed to incubate for 30 minutes at 37° C. The antibodies were then removed. Lipid vesicles comprised of 70% DOPC and 30% POPS (made according to the procedure for making vesicles described above) in HBSS were added to the cells and incubated […] at 37° C. The liposome/antibody solution was removed, and 35 μL lysis buffer (Cell Signaling Technologies, CST) was added using the liquid handler. The lysate was then incubated at 4° C. for 30 minutes, then either frozen at −80° C. or immediately carried forward to a pSyk AlphaLISA assay as described above.

hTfR apical domain = experiment: Biacore T200 binding kinetics to hTfR apical domain; design: species or system human; conditions: analyte hTfR apical domain
Procedure: (§1) The binding of the TREM2/TfR-binding protein RS9.F6/3C35.21.17 to TREM2 and TfR was measured using SPR on a Biacore T200 instrument. To measure TfR binding, anti-human-Fab was immobilized on a CM5 chip, and the TREM2/TfR-binding protein was captured. Full-length human TfR or human TfR apical domain at serial dilution (e.g., concentrations of 1-1000 nM) was flowed over the chip (180 second association time) and then allowed to dissociate. Fitting was performed using a 1:1 binding model. To measure TREM2 binding, anti-human-Fc antibody was immobilized on a CM5 chip, and the TREM2/TfR-binding protein was captured. A range of concentrations of recombinant TREM2-His protein were flowed over the chip, and allowed to associate and dissociate. The resulting sensograms were fitted using a 1:1 Langmuir model to estimate kon and koff (FIG. 10).
The affinities of RS9.F6/3C35.21.17 for human TREM2 and TfR were determined by surface plasmon resonance using a Biacore™ T200. Biacore Series S CM5 sensor chips were immobilized with a mixture of two monoclonal mouse anti-Fab antibodies (Human Fab capture kit from GE Healthcare). Serial 3-fold dilutions of each antigen were injected at a flow rate of 30 μL/min. The binding of the antigens to captured antibody was monitored for 30 to 180 seconds and then their dissociation was monitored for 30-300 seconds in HBS-EP+running buffer (GE, # BR100669). […]

hTREM2 [6] = target: T1, hTREM2; experiment: Biacore T200 binding kinetics to hTREM2; conditions: analyte hTREM2
Procedure: as §1
The affinities of RS9.F6/3C35.21.17 for human TREM2 and TfR were determined by surface plasmon resonance using a Biacore™ T200. Biacore Series S CM5 sensor chips were immobilized with a mixture of two monoclonal mouse anti-Fab antibodies (Human Fab capture kit from GE Healthcare). Serial 3-fold dilutions of each antigen were injected at a flow rate of 30 μL/min. The binding of the antigens to captured antibody was monitored for 30 to 180 seconds and then their dissociation was monitored for 30-300 seconds in HBS-EP+running buffer (GE, # BR100669). Binding response was corrected by subtracting the RU from a blank flow cell. A 1:1 Languir model of simultaneous fitting of kon and koff was used for kinetics analysis.

T3 sequence (O43914 22-113 partner, one chain of several): as above

Molecule | p-SYK signal (human macrophages [1]) | pERK1/2 signal (human macrophages [1]) | Bin by Octet (hTREM2 [2]) | STREM2 (soluble TREM2 (sTREM2)) | Bin by FACS (TREM2 [3]) | survival of human macrophages (human macrophages [4]) | liposome mediated pSyk signaling after antibody pre-incubation (TREM2 [5]) | ka (hTfR apical domain) | kd (hTfR apical domain) | ka (hTREM2 [6]) | kd (hTREM2 [6])
B1 | robust | robust | 1 | NC | 1 | increased the survival | enhanced |  |  |  | 
B2 | robust | robust | 1 | NC | 1 | increased the survival |  |  |  |  | 
B3 |  |  |  |  |  |  |  | 1.7e+06 M⁻¹ s⁻¹ | 0.19 s⁻¹ | 150000 M⁻¹ s⁻¹ | 0.00038 s⁻¹
